Measured values reported in patent publication US20230002480A1.

Assays:
Assay in all cases: cell-based or functional assay
[1] = target: HIV-1 Env of pseudovirus 0815.v3.c3 (clade ACD) (HIV-1)
[2] = target: HIV-1 Env of pseudovirus 231965.c01 (clade D) (HIV-1)
[3] = target: HIV-1 Env of pseudovirus 231966.c02 (clade D) (HIV-1)
[4] = target: HIV-1 Env of pseudovirus 3016.v5.c45 (clade D) (HIV-1)
[5] = target: HIV-1 Env of pseudovirus 3103.v3.c10 (clade ACD) (HIV-1)
[6] = target: HIV-1 Env of pseudovirus 3301.v1.c24 (clade AC) (HIV-1)
[7] = target: HIV-1 Env of pseudovirus 3415.v1.c1 (HIV-1)
[8] = target: HIV-1 Env of pseudovirus 3817.v2.c59 (clade CD) (HIV-1)
[9] = target: HIV-1 Env of pseudovirus 6041.v3.c23 (clade AC) (HIV-1)
[10] = target: HIV-1 Env of pseudovirus 6480.v4.c25 (clade CD) (HIV-1)
[11] = target: HIV-1 Env of pseudovirus 6540.v4.c1 (clade AC) (HIV-1)
[12] = target: HIV-1 Env of pseudovirus 6545.v4.c1 (clade AC) (HIV-1)
[13] = target: HIV-1 Env of pseudovirus 6811.v7.c18 (clade CD) (HIV-1)
[14] = target: HIV-1 Env of pseudovirus 6952.v1.c20 (clade CD) (HIV-1)
[15] = target: HIV-1 Env of pseudovirus 89-F1_2_25 (clade CD) (HIV-1)
[16] = target: HIV-1 Env of pseudovirus A07412M1.vrc12 (clade D) (HIV-1)
[17] = target: HIV-1 Env of pseudovirus BF1266.431a (HIV-1)
[18] = target: HIV-1 Env of pseudovirus C2101.c01 (clade CRF01_AE) (HIV-1)
[19] = target: HIV-1 Env of pseudovirus Ce704809221_1B3 (HIV-1)
[20] = target: HIV-1 Env of pseudovirus P1981_C5_3 (clade G) (HIV-1)
[21] = target: HIV-1 Env of pseudovirus Q769.d22 (HIV-1)
[22] = target: HIV-1 Env of pseudovirus X1254_c3 (clade G) (HIV-1)
[23] = target: HIV-1 Env of pseudovirus X1632_S2_B10 (clade G) (HIV-1)
[24] = target: HIV-1 Env of pseudovirus X2131_C1_B5 (clade G) (HIV-1)

10-1074 (antibody)
IC50, titer in TZM.bl cells [1]: 0.03 µg/mL
IC80, titer in TZM.bl cells [1]: 0.138 µg/mL
IC50, titer in TZM.bl cells [2]: > 50 µg/mL
IC80, titer in TZM.bl cells [2]: > 50 µg/mL
IC50, titer in TZM.bl cells [3]: > 50 µg/mL
IC80, titer in TZM.bl cells [3]: > 50 µg/mL
IC50, titer in TZM.bl cells [4]: > 50 µg/mL
IC80, titer in TZM.bl cells [4]: > 50 µg/mL
IC50, titer in TZM.bl cells [5]: 0.037 µg/mL
IC80, titer in TZM.bl cells [5]: 0.101 µg/mL
IC50, titer in TZM.bl cells [6]: 0.013 µg/mL
IC80, titer in TZM.bl cells [6]: 0.042 µg/mL
IC50, titer in TZM.bl cells [7]: > 50 µg/mL
IC80, titer in TZM.bl cells [7]: > 50 µg/mL
IC50, titer in TZM.bl cells [8]: 3.15 µg/mL
IC80, titer in TZM.bl cells [8]: 14.9 µg/mL
IC50, titer in TZM.bl cells [9]: > 50 µg/mL
IC80, titer in TZM.bl cells [9]: > 50 µg/mL
IC50, titer in TZM.bl cells [10]: 0.009 µg/mL
IC80, titer in TZM.bl cells [10]: 0.041 µg/mL
IC50, titer in TZM.bl cells [11]: > 50 µg/mL
IC80, titer in TZM.bl cells [11]: > 50 µg/mL
IC50, titer in TZM.bl cells [12]: > 50 µg/mL
IC80, titer in TZM.bl cells [12]: > 50 µg/mL
IC50, titer in TZM.bl cells [13]: 0.002 µg/mL
IC80, titer in TZM.bl cells [13]: 0.01 µg/mL
IC50, titer in TZM.bl cells [14]: 0.037 µg/mL
IC80, titer in TZM.bl cells [14]: 0.138 µg/mL
IC50, titer in TZM.bl cells [15]: > 50 µg/mL
IC80, titer in TZM.bl cells [15]: > 50 µg/mL
IC50, titer in TZM.bl cells [16]: < 0.001 µg/mL
IC80, titer in TZM.bl cells [16]: 0.048 µg/mL
IC50, titer in TZM.bl cells [17]: > 50 µg/mL
IC80, titer in TZM.bl cells [17]: > 50 µg/mL
IC50, titer in TZM.bl cells [18]: > 50 µg/mL
IC80, titer in TZM.bl cells [18]: > 50 µg/mL
IC50, titer in TZM.bl cells [19]: 0.139 µg/mL
IC80, titer in TZM.bl cells [19]: 0.696 µg/mL
IC50, titer in TZM.bl cells [20]: 0.005 µg/mL
IC80, titer in TZM.bl cells [20]: 0.017 µg/mL
IC50, titer in TZM.bl cells [21]: > 50 µg/mL
IC80, titer in TZM.bl cells [21]: > 50 µg/mL
IC50, titer in TZM.bl cells [22]: 0.089 µg/mL
IC80, titer in TZM.bl cells [22]: 0.297 µg/mL
IC50, titer in TZM.bl cells [23]: > 50 µg/mL
IC80, titer in TZM.bl cells [23]: > 50 µg/mL
IC50, titer in TZM.bl cells [24]: 0.016 µg/mL
IC80, titer in TZM.bl cells [24]: 0.064 µg/mL

PG9 (antibody)
IC50, titer in TZM.bl cells [1]: > 50 µg/mL
IC80, titer in TZM.bl cells [1]: > 50 µg/mL
IC50, titer in TZM.bl cells [2]: 1.28 µg/mL
IC80, titer in TZM.bl cells [2]: 48 µg/mL
IC50, titer in TZM.bl cells [3]: 0.075 µg/mL
IC80, titer in TZM.bl cells [3]: 0.257 µg/mL
IC50, titer in TZM.bl cells [4]: 2.46 µg/mL
IC80, titer in TZM.bl cells [4]: > 50 µg/mL
IC50, titer in TZM.bl cells [5]: 28 µg/mL
IC80, titer in TZM.bl cells [5]: > 50 µg/mL
IC50, titer in TZM.bl cells [6]: 0.216 µg/mL
IC80, titer in TZM.bl cells [6]: 0.756 µg/mL
IC50, titer in TZM.bl cells [8]: 0.02 µg/mL
IC80, titer in TZM.bl cells [8]: 0.062 µg/mL
IC50, titer in TZM.bl cells [9]: 0.244 µg/mL
IC80, titer in TZM.bl cells [9]: 3.64 µg/mL
IC50, titer in TZM.bl cells [10]: > 50 µg/mL
IC80, titer in TZM.bl cells [10]: > 50 µg/mL
IC50, titer in TZM.bl cells [11]: 0.07 µg/mL
IC80, titer in TZM.bl cells [11]: 0.253 µg/mL
IC50, titer in TZM.bl cells [12]: 0.099 µg/mL
IC80, titer in TZM.bl cells [12]: 0.351 µg/mL
IC50, titer in TZM.bl cells [13]: > 50 µg/mL
IC80, titer in TZM.bl cells [13]: > 50 µg/mL
IC50, titer in TZM.bl cells [14]: > 50 µg/mL
IC80, titer in TZM.bl cells [14]: > 50 µg/mL
IC50, titer in TZM.bl cells [15]: 0.668 µg/mL
IC80, titer in TZM.bl cells [15]: 10.1 µg/mL
IC50, titer in TZM.bl cells [16]: 0.697 µg/mL
IC80, titer in TZM.bl cells [16]: 7.96 µg/mL
IC50, titer in TZM.bl cells [17]: 0.026 µg/mL
IC80, titer in TZM.bl cells [17]: 0.088 µg/mL
IC50, titer in TZM.bl cells [18]: 0.034 µg/mL
IC80, titer in TZM.bl cells [18]: 0.099 µg/mL
IC50, titer in TZM.bl cells [19]: 0.037 µg/mL
IC80, titer in TZM.bl cells [19]: 0.137 µg/mL
IC50, titer in TZM.bl cells [20]: 0.258 µg/mL
IC80, titer in TZM.bl cells [20]: 2.51 µg/mL
IC50, titer in TZM.bl cells [21]: 0.025 µg/mL
IC80, titer in TZM.bl cells [21]: 0.068 µg/mL
IC50, titer in TZM.bl cells [22]: 0.065 µg/mL
IC80, titer in TZM.bl cells [22]: 0.304 µg/mL
IC50, titer in TZM.bl cells [23]: 0.107 µg/mL
IC80, titer in TZM.bl cells [23]: 0.934 µg/mL
IC50, titer in TZM.bl cells [24]: 0.084 µg/mL
IC80, titer in TZM.bl cells [24]: 0.286 µg/mL

PG16 (antibody)
IC50, titer in TZM.bl cells [1]: > 50 µg/mL
IC80, titer in TZM.bl cells [1]: > 50 µg/mL
IC50, titer in TZM.bl cells [2]: 1.44 µg/mL
IC80, titer in TZM.bl cells [2]: > 50 µg/mL
IC50, titer in TZM.bl cells [3]: 0.007 µg/mL
IC80, titer in TZM.bl cells [3]: 0.031 µg/mL
IC50, titer in TZM.bl cells [4]: > 50 µg/mL
IC80, titer in TZM.bl cells [4]: > 50 µg/mL
IC50, titer in TZM.bl cells [5]: 25.4 µg/mL
IC80, titer in TZM.bl cells [5]: > 50 µg/mL
IC50, titer in TZM.bl cells [6]: 0.02 µg/mL
IC80, titer in TZM.bl cells [6]: 0.087 µg/mL
IC50, titer in TZM.bl cells [8]: 0.008 µg/mL
IC80, titer in TZM.bl cells [8]: 0.06 µg/mL
IC50, titer in TZM.bl cells [9]: 0.048 µg/mL
IC80, titer in TZM.bl cells [9]: 0.256 µg/mL
IC50, titer in TZM.bl cells [10]: > 50 µg/mL
IC80, titer in TZM.bl cells [10]: > 50 µg/mL
IC50, titer in TZM.bl cells [11]: 0.035 µg/mL
IC80, titer in TZM.bl cells [11]: 0.42 µg/mL
IC50, titer in TZM.bl cells [12]: 0.044 µg/mL
IC80, titer in TZM.bl cells [12]: 1.56 µg/mL
IC50, titer in TZM.bl cells [13]: > 50 µg/mL
IC80, titer in TZM.bl cells [13]: > 50 µg/mL
IC50, titer in TZM.bl cells [14]: 21.9 µg/mL
IC80, titer in TZM.bl cells [14]: > 50 µg/mL
IC50, titer in TZM.bl cells [15]: 47.6 µg/mL
IC80, titer in TZM.bl cells [15]: > 50 µg/mL
IC50, titer in TZM.bl cells [16]: 0.343 µg/mL
IC80, titer in TZM.bl cells [16]: > 50 µg/mL
IC50, titer in TZM.bl cells [17]: 0.003 µg/mL
IC80, titer in TZM.bl cells [17]: 0.009 µg/mL
IC50, titer in TZM.bl cells [18]: 0.012 µg/mL
IC80, titer in TZM.bl cells [18]: 0.238 µg/mL
IC50, titer in TZM.bl cells [19]: 0.021 µg/mL
IC80, titer in TZM.bl cells [19]: 0.116 µg/mL
IC50, titer in TZM.bl cells [20]: 0.376 µg/mL
IC80, titer in TZM.bl cells [20]: > 50 µg/mL
IC50, titer in TZM.bl cells [21]: 0.005 µg/mL
IC80, titer in TZM.bl cells [21]: 0.018 µg/mL
IC50, titer in TZM.bl cells [22]: 0.023 µg/mL
IC80, titer in TZM.bl cells [22]: 0.218 µg/mL
IC50, titer in TZM.bl cells [23]: 0.012 µg/mL
IC80, titer in TZM.bl cells [23]: 0.076 µg/mL
IC50, titer in TZM.bl cells [24]: 0.024 µg/mL
IC80, titer in TZM.bl cells [24]: 0.139 µg/mL
